Experimental data reported in the supplement of paper PMC10567573.

B1: NET1 (parent)
chain: RVRPLARVTSLANLISPVRNGAVR
B2: DLC1 (parent)
chain: AIQGISEKEKAEIEAKEACDWLRA

Variants of: B1
Assay: protein stability index of a GFP-peptide fusion (GPS, HEK-293T) (PSI 1-6); higher = more stable
Settings: c terminus: a fixed tail appended
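Also: lentivirally expressed fusions sorted by FACS into six bins by GFP to DsRed ratio, PSI derived from sequencing read proportions per bin multiplied by bin number.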

Protein stability index, by site and new letter:
V8: C 2.93; M 2.79; E 3.54; G 2.32; W 3.05; I 2.38; Y 2.38; P 3.1; K 2.6; T 3.76; L 2.65; S 3.99; H 2.49; D 3.63; F 2.28; N 2.87; A 4.44; R 2.92; Q 2.73
R1: V 2.15; T 3.25; K 2.97; D 3.73; L 2; I 2.81; H 2.87; P 3.11; C 2.61; Q 3.19; M 2.97; W 2.36; E 2.79; S 3.43; Y 2.22; G 3.11; N 3.42; F 3.21
T9: K 3.69; A 2.81; E 2.87; L 2.09; G 3.68; F 2.85; D 3.73; Q 3.81; N 3.38; P 2.74; C 3.08; M 2.66; S 3.45; I 1.84; H 2.75; R 2.76
R7: C 2.39; I 2.43; T 3.39; F 1.85; E 2.5; W 2.79; M 2.64; L 2.83; Y 2.77; N 3.31; G 3.93; A 3.88; V 2.84; K 2.26; D 2.84; H 2.71; Q 3.37; P 3.81; S 2.78
R3: Q 3.33; M 2.46; H 2.67; C 1.72; S 3.03; G 3.1; Y 2.55; P 3.49; V 2.6; L 2.34; E 2.59; T 2.99; K 2.81; D 3.03; W 1.91; N 2.36; I 2.22; F 2.69; A 3.02
A6: Q 3.17; M 3.18; H 2.69; T 2.9; V 3.36; N 2.93; C 2.98; K 2.74; P 3.04; D 2.95; W 2.35; G 3.98; S 2.53; E 3.06; F 2.71; L 2.72; I 2.76; R 3.33; Y 2.02
L5: P 3.3; Q 3.54; S 3.6; K 2.85; G 2.5; H 3.14; F 2.71; E 3.61; D 3.04; R 3.2; Y 2.59; M 2.55; W 2.03; N 2.56; C 3.04; I 3.04; A 3.36; V 3.59; T 2.56
P4: Q 2.51; D 3.06; E 2; W 2.71; S 2.85; G 2.38; K 2.87; V 2.02; C 1.18; T 2.31; I 1.4; F 2.4; A 2.06; N 2.9; H 2.86; R 1.97; M 1.43
V2: K 3.65; C 2.64; H 2.91; L 2.29; W 2.67; S 3.57; P 3.11; E 3.69; Q 3.59; Y 2.62; G 3.08; N 2.79; F 1.97; I 2.25; R 2.92; M 3.04; D 3.77; A 3; T 3.14

Variants of: B2
Assay: as above
Settings: c terminus: a fixed tail appended

Protein stability index of substitutions, site by site:
A24: M 3.52; K 4; F 4.32; D 5.14; E 5.03; R 4.23; N 4.75; S 4.65; I 4.44; L 4.46; H 4.66; Y 4.72; Q 4.67; G 4.78; V 4.58; P 4.64; C 4.55; T 4.46; W 3.7
C19: R 4.45; F 4.47; L 3.98; Y 4.64; N 4.89; K 4.63; W 4.45; H 4.75; S 4.6; T 5.12; G 4.43; P 4.33; I 4.09; V 4.77; E 5.65; D 5.19; A 4.79; Q 4.77; M 4.39
R23: T 5.14; Q 5.25; H 4.75; S 4.95; F 4.33; E 5.36; I 4.68; Y 3.8; M 4.45; K 4.62; G 4.42; P 4.7; C 4.73; V 4.31; L 3.87; N 5.1; D 5.42; W 4.91; A 4.67
K16: S 4.1; T 4.87; N 4.82; H 4.32; V 4.17; L 4.1; G 4.35; Y 3.89; Q 4.44; I 4.16; R 4.55; E 5.21; M 4.24; P 3.58; D 5.1; F 3.61; W 4.09
E17: G 4.18; H 4.18; I 4.12; L 3.76; N 3.63; D 4.18; C 3.92; K 4.23; T 4.34; W 3.27; M 3.86; S 4.17; V 3.65; Y 3.79; F 3.55; Q 3.73; R 3.7; P 4.41; A 4.14
L22: E 5.62; M 4.73; A 5.03; C 4.17; T 4.82; Y 4.22; H 5; R 4.5; G 4.98; N 5.24; I 4.98; D 5.49; K 5.38; P 5.2; W 4.28; Q 5.03; S 5.09; V 4.73; F 4.61
W21: K 5.44; P 5; H 5.29; Y 4.68; I 4.62; S 5.05; C 5.35; D 5.77; M 5.6; F 4.66; G 5.35; Q 5.47; A 5.41; V 4.89; R 5.4; N 5.1; T 5.17; L 5.22; E 5.01
D20: Q 3.91; P 3.56; S 4.28; C 3.21; A 3.99; I 3.35; Y 3.97; W 3.98; L 3.68; T 4.12; R 3.19; K 4.05; N 4.3; F 3.75; M 3.63; G 3.56; E 4.27; V 3.81; H 3.95
A18: W 4.27; S 4.31; L 4.2; R 4.56; I 4.14; P 4.88; N 4.42; E 5.02; F 3.82; C 4.43; H 4.8; G 4.35; K 4.06; Y 4.33; Q 4.28; D 4.89; V 4.26; M 4.57; T 4.35
